Measured values as given in US11891642B2, “Biocatalytic techniques” (HYPHA DISCOVERY LIMITED, priority 2018, dated 2024).
Where a chain is given by its changes, count along the chain named. Names may count otherwise.

B1: SriC12-SriF05: cytochrome P450 SriC12 (SEQ ID NO: 29) co-expressed with ferredoxin SriF05 (SEQ ID NO: 30), native coding sequence (protein, listed as Streptomyces rimosus)
chain 1: MTEALPFPQDRTCPYDPPAGYQPLRDSRPLSRVTLYDGRPAWVVTGHAESRALLTDPRLSADRQNPAFPSPAPRFETLRKVRTPLLGVDDPEHNTQRRMLIPSFSVKRAAALRPRIQEIVDRLLDAMEQQGPPAELVSAFALPVPSMVICALLGVPYADHELFEGLSRTLLQSADPQEVTEARDKLEDYFTALVERKRKEPGDGLLDELIAERLDSGELGHRELVRMAMLLLVAGHETTSNMLSLGTFTLLEHPEQFAALRADPSLLPAAVEELLRFLSIADGMVRVATEDIEIGGVTIRADDGVIFSTSVVNRDGAAYASPDTLDWERSARHHVAFGFGVHQCLGQNLARAEMEIAFGALFARFPGLRLAVPAAEIPVKPAHALQGLVELPVTW
chain 2: MKIDIDTSVCIGSGQCVLTAPGVFTQDDDGFSTLLPGREDGTGDPLVREAARACPVQAIAVTDD
B2: Mutant 10 L171I: L171I mutant of codon optimised cytochrome SriC12, SEQ ID NO: 235 (protein)
chain: B1 chain 1 with L171I
modifications: L171I mutant of SriC12
B3: Mutant 18 R63W L171A: R63W L171A mutant of codon optimised cytochrome SriC12, SEQ ID NO: 253 (protein)
chain: B1 chain 1 with R63W, L171A
modifications: R63W L171A mutant of SriC12
B4: Mutant 17 R63W R74Y: R63W R74Y mutant of codon optimised cytochrome SriC12, SEQ ID NO: 251 (protein)
chain: B1 chain 1 with R63W, R74Y
modifications: R63W R74Y mutant of SriC12
B5: Mutant 14 L230I: L230I mutant of codon optimised cytochrome SriC12, SEQ ID NO: 237 (protein)
chain: B1 chain 1 with L230I
modifications: L230I mutant of SriC12
B6: SriC01: cytochrome P450 from Streptomyces rimosus NRRL-2234, amino acid sequence SEQ ID NO: 2 (protein, listed as Streptomyces rimosus)
chain: MTETIPFEAVDGAVRPSEEVPVVDLSATGLSDTPLQQAMGLAREHGAVYRRRLHGHEALLVSSLELVTELADENRFAKGVSVALENVREFAGDGLFTAYNDEPNWAKAHDILMPAFALGSMRTYHPAMLKVARRVIGSWDRRAADGTPVDVPDDMTRMTLDTIGLAGFGFDFESFSRATMHPFVEAMVRCLEWSMKRLGREPDGDYTEEDAAFRADADYLASVVDEVIASRTGADGTPGEEAGDDLLGLMLGATHPADGTTLDLANIRNQVITFLIAGHETTSGALSFALYHLLKDPAALRLAQREADELWGDQTDPDPSFEDIGRLPYTRQVLNEALRLWPTAAAFSRQARTDTLLGGRIPLKAGQLVTVLTPMLHRDPAWGDNPELFDPTRFAPEAEAARSPHAYKPFGTGERACIGRQFALHEATMLLAMLVHRYRLIDHSDYRLSIKETLTLKPDGFTLTLARRTPADRAGLRAALAVLPGGAAEPDGTESGTDDGLPTRVRQDTALLLLHGTNYGTCRDFAERIADEATGLGFTTEVAPLDAATGALPTDRPVVIVTASYNGQPTDDAARFVEWLSGDEARAEGVPYAVLGVGDRNWAATYQRVPTLLDERLAALGAERLLPRGEADASGDLNGAVKAFTATLRTELLVRYGDPATIGASTPADATDASYTVREVTGGPLDALAARHGLQPMTVTEAYDLTAPGYPRVKRFLRLTLPEGVTYRTADHLAVLPANGAAAVERAAQVLGVSLEAVLDIRAGAGRGGRDTLPVDRPLTVRQLLTHHLELNARPTAAQRAVLADHNPCPPERAALQAIPDDDPRTTLDLIEEHPALRGVLPWPVLLDLLPALRIRHYSLSSSPAADPRHADLMVSLLPGGTGSGHLHTLRPGDTVLARVQPCREAFRLDPADPTPVILVAAGTGLAPFRGAVADRLAATQLAPALLYFGCDALEADYLHAEELQAAEAAGAVSLRPAFSARPVDGCRYVQHRIAAEAEEVGALLDAGARVYVCGDGNRMAPGVRAAFRELYAARTGATQEEAEVWLRELTAAGRYVEDVYVTG
B7: SriC14-SriF06: cytochrome P450 SriC14 (SEQ ID NO: 34) with ferredoxin SriF06 (SEQ ID NO: 35) (protein, listed as Streptomyces rimosus)
chain 1: MTETSTAFPAQDAPAFPSDRTCPYGLPETYARLRDSEDALRPVTLFDGRTAWVVTKHETARTLLADPRLSSNRTHPDFPLTSPRLAGLRDRRPAFISMDPPEHGPRRRMTISEFTVKRIKGMRPDIERIVHGFLDEMLAAGPPADLVSRFALPVPSMVICQLLGVPYADHDFFQDASRRLVQSTSAEEATGARDDLERYLDGLITTLESEPGPGLLGALVTRQLADGAIDRDELISNALLLLVAGHETTASMTSLSVITLLEHPEQHAALRDDPSLIPGAVEELLRYLAIADVAGARVATADIEVDGQVIRAGEGVIVVHSIANRDAGVFENPDTFDIHRSARHHLSFGYGVHQCLGQNLARLELEIILSALFERIPTLRLATPVERLTLRPGSTIQGVNELPVTW
chain 2: MHVTADRDVCVGAGMCALTAPGVFDQDDDGLVTVLTSDIGENDRDAVREAGMLCPSGALRVTE
B8: SriC20: cytochrome P450 from Streptomyces rimosus NRRL-2234, SEQ ID NO: 47 (protein, listed as Streptomyces rimosus)
chain: MPEIIDLGAYGPDFVADPHPYYAKLRAQGPVHRVRAPEMEPEFPQAWLIVGYDEARAVLADNRFAKDWSRANGSLADSEVLAEWQLMNMLDADPPQHTRLRKLVAREFTTRRVEALRPRVQQITDELLDAMLAAPDGRADLVEALAFPLPMTVICELLGVPDIERDTFRAWSNELVSPTDNEATMTAAREMAAYLDGLIESKRSSPGEDLLSALVRTSDEDGDQLSRQELLGMAFLLLVAGHETTVNLISNGVRALLQHPAQLAALRADPSLLDNAVEEMLRYDGPVETATWRFTAEPVGIGGVEIPAGEIVLVGLAGADRDPERFEAPDTFDITRETRGHVAFGHGIHFCLGAPLARVEGRIAVRTLLDRCPDLALDTAPEALTWRAGMTIRGPQHLPVRWR
B9: SriC51-SriF08: cytochrome P450 SriC51 (SEQ ID NO: 109) with ferredoxin SriF08 (SEQ ID NO: 110) (protein, listed as Streptomyces rimosus)
chain 1: MTTADTMPLAYPFNDADGLALSETYEQVRDRPGLLRVQMAYGEPAWLATRYADARLVLGDRRFSRAEGLERDEPRQSEGQRDSGILSMDPPDHTRLRTLVAKAFTVHQVEKLRPWVRELTHGLIDELEAAGPPVDLVDRYALPIPVAVICRMLGVPEEDRPKFRTWSDAALSTSSLTAEEFEANREELRAYMAKLIEDHRTTPRDDLMTRLIEARDVGDRLSELELIDLCVGILVAGHETTATQIPNFVLSLLDHPGELERLRAEPALIKSAVEELLRFVPLGSGAGFPRYATEDIEVGGTLVRAGEPVLVAVGAANRDALRFDEPGTLNITRDGNQHLGFGHGVHHCLGAPLARLELQEALIALITRFPKLHVAGDVVWKDQMLVRGPRVMPVGW
chain 2: MTWKAAIDGQQCMASGMCAGIAPDLFVLDGPHARPLQEEIPEDEAALDAADSCPAMAILIRDGEKVVGPRP
B10: SriC22: cytochrome P450 from Streptomyces rimosus NRRL-2234, SEQ ID NO: 51 (protein, listed as Streptomyces rimosus)
chain: MTTSPTESTTATPPDSTTASAPGTPPDALPSYVGLHPGEPNVMEPELLNDPYAGYGKLREQGALVRGRFLDDSPVWLVTRFDVVREVMRDPRFINNPSRLPGRTEKDPRAQLIELFGIPDHMARYLVDTILTSDPPDHTRLRRLVSRAFTARRIQDLRPRVEAITDELLDRLPAHAQDGVVDLVEHFAYPLPITVICELVGIDEEDRPLWRQFGADLTSLEPKRIGATVPAMVEHIHKVIGERQSALRDDLLSALIRARDDDGGRLSETEMVTMVLTLVLAGHETTAHLISNGTLALLTHPDQRRLLTEDPGLLPRAVHELMRWCGPIQATQLRYASEDVEVAGTQVHKGDALMFSLVAANHDPRHYTEPEKLDLTRQPAGRAEDHVGFGHGMHYCLGASLARQEGEVAFGKLLARYPEVALALPHEQLEEQERIRQPGSWRLRRLPLRLRPED

Test: Concentration of cytochrome P450 in cell-free extract by carbon monoxide difference spectrum (Omura and Sato)
Conditions: effect of codon optimisation, expressed in E. coli BL21 (DE3), value ± SD
Procedure: Measurement is performed according to the method of Omura and Sato et al. (J Biol Chem, 239. 1964, 2370). That is to say, cytochrome P450 is analyzed quantitatively using the following formula, based on the difference in the absorbance of the reduced CO versus the reduced difference spectrum at 450 nm and 490 nm.
Measurement of the concentration of cytochrome P450 were performed according to the method of Omura and Sato et al. (J Biol Chem, 239. 1964, 2370). Cytochrome P450 concentrations of cell-free extracts of induced E. coli BL21 (DE3) Rosetta2 & Tuner cells harbouring either pHD05-SriC01, pHD02-SriC12-SriF05, pHD05-SriC14-SriF06, pHD05-SriC20, pHD05-SriC22 or pHD05-SriC51-SriF08 are shown in Table 2. Carbon monoxide difference spectra for P450SriC01, P450SriC12, P450SriC14, P450SriC20, P450SriC22 and P450SriC51 are shown in FIGS. 9, 10, 11, 19, 20 & 21 respectively.
The native and codon optimised P450sriC12 and ferredoxinsriF05 in pHD02-SriC12-SriF05 and pHD02-SriC12CO-SriF05CO respectively were introduced into E. coli BL21 (DE3). The recombinant strains were cultured and proteins were induced as in Example 2. The cell-free extract material was obtained as in Example 3 and carbon monoxide difference spectrums were measure to calculate the concentration of cytochrome P450.
The resulting plasmids containing the new mutants genes were transformed into recombinant E. coli strains for expression as described in Example 1, cultured and induced as described in Example 2, extracted and processed as described in Example 3 and tested for biocatalytic activity as described in Example 5 above. The carbon monoxide difference spectrum result of R63W mutant of codon optimised P450SriC12 is shown in FIG. 14 and the cytochrome P450 concentration of mutant P450SriC12 are shown in Table 5.

Molecule	P450 concentration
B1	3.6 ± 0.3 µM

Same assay, conditions: mutant P450SriC12 expressed in E. coli BL21 (DE3)

Molecule	P450 concentration
B2	12.4 µM
B3	22.4 µM
B4	27.6 µM
B5	3.5 µM

Same assay, conditions: native enzymes expressed in E. coli BL21 (DE3) Rosetta2 & Tuner cells, cell-free extract

Molecule	P450 concentration
B6	33.5 µM
B7	15.4 µM
B8	18.8 µM
B9	25.0 µM
B1	3.6 µM
B10	18.4 µM
